According to paper PMC9637899:
“And” between values parts separate entries of the source, which are not always exact repeats. Equal values may be shown once.

Columns and labels:
[1] = target: ElpB_(182–378) (B. burgdorferi) (UniProt H7C7R2); experiment: SPR; Elp truncation amine-coupled to a CMD200 chip; multicycle twofold injection series of C1s enzyme or activated C1s–CCP1–CCP2–SP constructs from 200 nM; HBS-T Ca2+ (10 mM Hepes pH 7.3, 140 mM NaCl, 0.005% Tween-20, 5 mM CaCl2), 30 ul/min; K_(D, kin) from a kinetic and K_(D, ss) from a steady-state 1:1 (Langmuir) fit; triplicate
[2] = target: ElpQ_(181–343) (B. burgdorferi); experiment: as above
[3] = target: activated c-Myc-C1s–CCP1–CCP2–SP_(S632A) (human) (UniProt P09871); experiment: AlphaScreen or HTRF; competition: 50 nM GST-ElpQ on glutathione donor beads and 500 nM activated c-Myc-C1s–CCP1–CCP2–SP_(S632A) on anti-c-Myc acceptor beads, 12-point twofold dilution of untagged competitor; HBS-T Ca2+, 1 h at room temperature; IC50 taken to approximate KD (Cheng–Prusoff)
[4] = target: activated C1s–CCP1–CCP2–SP (human) (UniProt P09871)
[5] = target: ElpB_(111–378) (B. burgdorferi); experiment: SPR; Elp truncation amine-coupled to a CMD200 chip; multicycle twofold injection series of C1s enzyme or activated C1s–CCP1–CCP2–SP constructs from 200 nM; HBS-T Ca2+ (10 mM Hepes pH 7.3, 140 mM NaCl, 0.005% Tween-20, 5 mM CaCl2), 30 ul/min; K_(D, kin) from a kinetic and K_(D, ss) from a steady-state 1:1 (Langmuir) fit; triplicate

Sequence of activated c-Myc-C1s–CCP1–CCP2–SP_(S632A) (human) (P09871 16-688 S632A): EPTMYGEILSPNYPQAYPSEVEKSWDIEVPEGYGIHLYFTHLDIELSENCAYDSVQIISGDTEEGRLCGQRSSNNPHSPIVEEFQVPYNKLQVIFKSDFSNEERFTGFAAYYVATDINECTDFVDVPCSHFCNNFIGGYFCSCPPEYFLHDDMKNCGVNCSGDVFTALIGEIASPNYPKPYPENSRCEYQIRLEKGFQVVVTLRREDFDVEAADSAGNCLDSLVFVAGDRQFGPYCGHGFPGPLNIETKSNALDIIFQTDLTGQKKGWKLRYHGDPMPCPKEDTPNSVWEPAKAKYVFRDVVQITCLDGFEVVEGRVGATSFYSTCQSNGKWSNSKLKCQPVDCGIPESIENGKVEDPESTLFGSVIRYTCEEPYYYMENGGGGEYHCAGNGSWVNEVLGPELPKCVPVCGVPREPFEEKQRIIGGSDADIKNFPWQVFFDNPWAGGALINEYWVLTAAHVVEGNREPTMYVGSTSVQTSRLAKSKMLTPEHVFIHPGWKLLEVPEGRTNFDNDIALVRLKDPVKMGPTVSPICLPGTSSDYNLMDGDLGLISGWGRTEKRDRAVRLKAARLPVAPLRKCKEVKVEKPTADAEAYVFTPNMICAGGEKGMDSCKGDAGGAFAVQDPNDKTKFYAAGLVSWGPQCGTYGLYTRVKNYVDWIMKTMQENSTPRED
Sequence of activated C1s–CCP1–CCP2–SP (human) (P09871 292-688): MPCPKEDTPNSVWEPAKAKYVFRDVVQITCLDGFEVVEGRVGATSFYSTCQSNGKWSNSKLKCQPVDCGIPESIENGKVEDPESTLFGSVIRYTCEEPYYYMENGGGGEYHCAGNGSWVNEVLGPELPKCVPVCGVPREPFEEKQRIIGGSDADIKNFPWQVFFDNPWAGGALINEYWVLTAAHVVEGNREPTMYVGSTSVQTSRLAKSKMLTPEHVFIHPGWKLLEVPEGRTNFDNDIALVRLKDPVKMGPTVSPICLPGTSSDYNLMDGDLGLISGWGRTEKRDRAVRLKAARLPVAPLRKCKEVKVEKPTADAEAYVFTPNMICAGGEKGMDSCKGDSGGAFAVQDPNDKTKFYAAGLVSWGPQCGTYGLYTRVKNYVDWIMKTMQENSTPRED

Substance | Kd [2] | Kd [3] [nM] | further results
C1s CCP1–CCP2–SP CCPE (from UniProt P09871) (domain or fragment) | 370 nM |  | Kd [1]: 570 nM
ElpB_(182–378) (from UniProt H7C7R2 182-378) (domain or fragment) |  | 45 | 
ElpQ_(19–343) (natural protein) |  | 190 | 
ElpQ_(181–343) (domain or fragment) |  | 110 | IC50 of inhibition of C4 cleavage by 6.25 nM activated C1s–CCP1–CCP2–SP, SDS-PAGE densitometry, ElpQ (181–343) 25 to 0.20 uM; blocks m9 with m17 [4]: 3600 nM
activated C1s–CCP1–CCP2–SP (from UniProt P09871 292-688) (domain or fragment) | 210 nM |  | 
complement component C4 (natural protein) |  | 740 | 
purified full-length activated C1s enzyme | 17 nM and 31 nM |  | Kd [5]: 21 nM and 35 nM; Kd [1]: 47 nM and 85 nM
